Data: article PMC4551927 (Nucleic Acids Research, 2015)

B1: Mycobacterium tuberculosis VapB30 antitoxin (natural protein)
chain: MALSIKHPEADRLARALAARTGETLTEAVVTALRERLARETGRARVVPLRDELAAIRHRCAALPVVDNRSAEAILGYDERGLPA
B2: Mycobacterium tuberculosis VapC30 toxin (natural protein)
chain: MMVIDTSALVAMLSDEPDAERFEAAVEADHIRLMSTASYLETALVIEARFGEPGGRELDLWLHRAAVDLVAVHADQADAARAAYRTYGKGRHRAGLNYGDCFSYGLAKISGQPLLFKGEDFQHTDIATVALP

How the values were obtained:
crystal structure = biological target: the molecule itself; assay: crystal structure
[1] = biological target: B2; assay: crystal structure

| Binder | binding result (crystal structure) | binding result [1] |
| --- | --- | --- |
| B1 | binds | binds |
| B2 | binds | – |
